Patent US11306156
Where “and” joins values, the source holds several entries; their conditions need not be identical. Equal entries are not always repeated.

Assays:
[1] = target: D3H44 light chain Q124E_V133G_S176D_T178E_T180E; assay: LCCA (co-expression, SPR tag read-out), L1:L2 DNA 1:3 normalised to 1:1; competing light chain m7
[2] = target: D3H44 light chain V133G_S176D_T178D_T180E; assay: as above
[3] = target: D3H44 light chain Q124E_V133G_S176D_T178E_T180E; assay: LCCA (co-expression, SPR tag read-out), L1:L2 DNA 1:3 normalised to 1:1; competing light chain m8
[4] = target: D3H44 light chain Q124E_V133G_S176D_T178D_T180E; assay: as above
[5] = target: D3H44 light chain Q124E_V133G_S176D_T178D_T180E; assay: LCCA (co-expression, SPR tag read-out), L1:L2 DNA 1:3 normalised to 1:1; competing light chain m7
[6] = target: tissue factor (TF) antigen (UniProt P13726); assay: SPR (ProteOn), Fab captured via anti-penta-His, TF injected, 1:1 fit
[7] = target: tissue factor (TF) antigen (UniProt P13726); assay: SPR (ProteOn), Fab captured via anti-penta-His, TF injected, 1:1 fit; reference wild-type D3H44 Fab
[8] = target: tissue factor (TF) antigen (UniProt P13726); assay: SPR, His-captured Fab, TF as analyte, 1:1 fit; batch C (+)
[9] = target: tissue factor (TF) antigen (UniProt P13726); assay: SPR, His-captured Fab, TF as analyte; against wild-type D3H44 Fab; batch C (+)
[10] = target: tissue factor (TF) antigen (UniProt P13726); assay: SPR, Fab captured on anti-penta-His, TF as analyte; against wild-type D3H44 Fab
[11] = target: tissue factor (TF) antigen (UniProt P13726); assay: SPR, Fab captured on anti-penta-His, TF as analyte, 1:1 fit
[12] = target: tissue factor (TF) antigen (UniProt P13726); assay: SPR (ProteOn XPR36), Fab captured on anti-penta His surface, TF injected, 1:1 fit; reference wild-type D3H44 Fab
[13] = target: tissue factor (TF) antigen (UniProt P13726); assay: SPR (ProteOn XPR36), Fab captured on anti-penta His surface, TF injected, 1:1 fit

With D3H44 Fab heavy chain L124E_K145M_Q179E the H1L1:H1L2 normalized median ratio [1] was 6 parts of 100 and the H1L1:H1L2 normalized median ratio [2] was 6 parts of 100.

In the case of D3H44 Fab heavy chain L124R_D146N_Q179K, the H2L2:H2L1 normalized median ratio [3] is reported as 89 parts of 100 and the H2L2:H2L1 normalized median ratio [1] is reported as 90 parts of 100.

With D3H44 Fab heavy chain L124R_S186R the H2L2:H2L1 normalized median ratio [4] was 95 parts of 100 and the H2L2:H2L1 normalized median ratio [5] was 92 parts of 100.

“D3H44 Fab heterodimer (H1L1) of LCCA Set # 9397: H1 L124R_Q179K, L1 V133G_Q160E_S176D_T180E” gave a Kd [6] of 0.19 nM and a change in median KD compared to wild type, -(log(KD design)-log(KD wt)) [7] of -0.08.

“D3H44 Fab heterodimer (H1L1) of LCCA Sets # 9120, 9121: H1 L124E_H172T, L1 V133G_N137K_S174R_S176R” was tested, and the Kd [6] was 0.13 nM and the change in median KD compared to wild type, -(log(KD design)-log(KD wt)) [7] was 0.03 and 0.08.

In the case of “D3H44 Fab heterodimer (H1L1) of LCCA Sets # 9419, 9420, 9423, 9425, 9426: H1 L124R_Q179K, L1 V133G_S176D_T178E_T180E”, the Kd [6] is reported as 0.23 nM and the change in median KD compared to wild type, -(log(KD design)-log(KD wt)) [7] is reported as -0.16.

In the case of “D3H44 Fab heterodimer H1L1 of LCCA Set # 9813 (H1 Q39E_K145T_H172R_Q179E; L1 Q38R_S131K)”, the Kd [8] is reported as 0.18 nM and the Change in median values of KD compared to wild type (-(log(KD design)-log(KD wt))) [9] is reported as -0.05 log.

Substance “D3H44 Fab heterodimer H1L1 of LCCA Set # 9848 and 9847 (H1 S186K; L1 Q124E_S176L_T180E)” has a Kd [8] of 0.15 nM and a Change in median values of KD compared to wild type (-(log(KD design)-log(KD wt))) [9] of 0.03 log.

In the case of “D3H44 Fab heterodimer H1L1 of LCCA Set # 9885 and 9886 (H1 S186R; L1 Q124E_S176L_T180E)”, the Kd [8] is reported as 0.18 nM and the Change in median values of KD compared to wild type (-(log(KD design)-log(KD wt))) [9] is reported as -0.06 log.

“D3H44 Fab heterodimer, H1 L45P_L143E_K145T_Q179E / L1 P44F_Q124R_Q160K_T178R (H1L1 Fab of LCCA Set # 9754)” gave a change in median KD compared to wild type, -(log(KD design)-log(KD wt)) [10] of -0.28 and a Kd [11] of 0.3 nM.

“D3H44 Fab heterodimer, H1 L124A_L143F_Q179K / L1 Q124E_V133W_S176T_T178L_T180E (H1L1 Fab of LCCA Set # 9096, 9095 and 9094)” was tested, and the change in median KD compared to wild type, -(log(KD design)-log(KD wt)) [10] was -0.04 and the Kd [11] was 0.17 nM.

“D3H44 Fab heterodimer, H1 L124R_Q179K / L1 Q124E_V133G_S176D_T178E_T180E (H1L1 Fab of LCCA Set # 9388)” gave a Change in median values of KD of h1l1 Fab heterodimer compared to wild type (-(log(KD design)-log(KD wt))) [12] of -0.15 and a Kd [13] of 0.22 nM.

Work on “D3H44 Fab heterodimer, H1 L124R_Q179K / L1 Q124E_V133G_S176D_T178E_T180E (H1L1 Fab of LCCA Set # 9392, 9394, 9395, 9376, 9380 and 9384)” yielded a change in median KD compared to wild type, -(log(KD design)-log(KD wt)) [10] of -0.15 and a Kd [11] of 0.22 nM.

Substance “D3H44 Fab heterodimer, H1 L124R_S186K / L1 Q124E_V133G_S176D_T178D_T180E (H1L1 Fab of LCCA Sets # 9451, 9459, 9460, 9461, 9449)” has a Change in median values of KD of h1l1 Fab heterodimer compared to wild type (-(log(KD design)-log(KD wt))) [12] of -0.23 and a Kd [13] of 0.26 nM.

With “D3H44 Fab heterodimer, H1 L124R_S186K / L1 V133G_S176D_T178D_T180E (H1L1 Fab of LCCA Set # 9471 and 9473)” the change in median KD compared to wild type, -(log(KD design)-log(KD wt)) [10] was -0.07 and the Kd [11] was 0.18 nM.
